In paper PMC11046786 one finds stoichiometry N data, which are given here for one substance.

The target of this assay is Psilocybe mexicana IasA (indole-3-acetaldehyde synthase), C-terminally hexahistidine-tagged (Psilocybe mexicana). In words: SEC; Superdex 200 increase 10/300 GL, native protein, 50 mM sodium phosphate, 150 mM NaCl, pH 7.2, 0.5 mL/min.

Usually stoichiometry N stands for a count of units in the complex or per binding partner. Substance “Psilocybe mexicana IasA (indole-3-acetaldehyde synthase), C-terminally hexahistidine-tagged (enzyme)” gave a stoichiometry N of 2.
